{"source": "the domain aggregation screens of Martell et al. (2025)"}
{"test": "soluble fraction after stress (log2 fold change); higher = more stays soluble; pooled small domains, quantitative proteomics", "conditions": "stress: 75 degC"}
{"sequence": "HMNEAMIMIDLKGKSRDEAVKELDELNLKYRFTGNGIVKDQKPKAGEEINSDTVVEVELSEIK", "soluble fraction (log2)": 0.12}
{"sequence": "HMNEDYFTIAGYASLRGVNIDTSKANMLGRKATKLSREYGYDIGKVTDTRFGKVNSYHLDILKSIFEF", "soluble fraction (log2)": -0.575}
{"sequence": "HMNEFSYLSELGSEKGDLIKGLQLVQSREGYVSDDAIRAISKHFSIAEAEVEGVLTFYAQFK", "soluble fraction (log2)": -1.28}
{"sequence": "HMNEIESFSNTKNPFSLTFKTSKDSSYKVEASSNLKKWTTLSQIKGTGNPITFTESRRILFRKQYYRVTLS", "soluble fraction (log2)": -0.176}
{"sequence": "HMNEISFYPNPAKESLTVKGLSEITSYSISDINGKLIQYGTTFDRINLEKLTKGFYFLTIGNTISKKLIV", "soluble fraction (log2)": -0.311}
{"sequence": "HMNEISLKEITIEEDHPWRDKKIKELDLKEHILVAMIRRKDQDIIPNGETKIYKDDILVIYD", "soluble fraction (log2)": 0.00328}
{"sequence": "HMNEKFNVYPIPVYNNLNITGLSKPVTYLISSIDGKTIKNGVFQESIDVSDLKSGLYFLQVETKDPVKFIK", "soluble fraction (log2)": -0.991}
{"sequence": "HMNEKLNEYLNQVKAYLNTSDNKEDIIKELEAVVLEKAEKKYGQITDESISKILSEFGSPAEVAKEYS", "soluble fraction (log2)": 0.218}
{"sequence": "HMNEKLRNYIDTLFEHAPTTVRAVELKEEMFQNLTDKYNDLIAQGKSEEAAFNIAVASIGDVDSLIAGLS", "soluble fraction (log2)": 0.179}
{"sequence": "HMNELGSLIKRKREELGLSQEELARILGYKHKSSINKIELGLADVPRTKVPAFAKALGMTPVEFS", "soluble fraction (log2)": -0.12}
{"sequence": "HMNELPSVIIMKNGRTRPYELQEISKDEEWLNQTIREHGIEPKDIFIAEFWDGRTAFILNDGRIVK", "soluble fraction (log2)": -0.428}
{"sequence": "HMNERIKSLRKALGLTQQEFADKLGISRGNIGAYEVGKNAPSDAVISLIVRIFNTNENWLRTGEGEM", "soluble fraction (log2)": -0.776}
{"sequence": "HMNETSRTRALNILGLKATATQEDIKKAYRSLAKEYHPDKLVGVSEGVKKISEEKFREINEAYEYLI", "soluble fraction (log2)": 0.557}
{"sequence": "HMNEVIIKNWSNAVGRNIKIKTKRGRPIFGRLLAINDQQLTIASKYMRGNATITVAREDVVSMSVS", "soluble fraction (log2)": -3.08}
{"sequence": "HMNEVRINTAHIEHKYLGEVKVLDIQEMRNARGRDADPLAFLAIRFWSPRGVLVRVKDSRDATPYWLIS", "soluble fraction (log2)": 0.199}
{"sequence": "HMNEYHRNISDEEFVRDIKETAIKLKKETLTGVEYSQNGKYHASTIIHRFGSWKKALELAELNTK", "soluble fraction (log2)": -0.225}
{"sequence": "HMNFNYPVIVKNSRINVSGVLSAAKLYTINGQLLQSYKGSGEFTSKTLTKGIYILQVDNARTKVLV", "soluble fraction (log2)": -4.42}
{"sequence": "HMNFSKEYILVHSYKEIDILDALIVKYEATLVNREFDLFINSYIKINEDYAKLFRDEIISKTSGSMSIKEL", "soluble fraction (log2)": -2.93}
{"sequence": "HMNFTKHPENPNFVVYRFTDPERANSFRAELIANNISFEEDTEKKKQLIYTLFAIHTKYYNQSMQINIK", "soluble fraction (log2)": -0.843}
{"sequence": "HMNFTVTDKNAVLYSNDNTKVYESPDINSKLVTTIAKDLPVNVTGITSNGWFRISLEGTYYVPGNGLEQR", "soluble fraction (log2)": -0.139}
{"sequence": "HMNGADPYEQLGVTRDASDDELKAAHRKLSRENHPDTLMAKGMPPEFIEQANDKMARINAAWDQIRKERGI", "soluble fraction (log2)": 0.323}
{"sequence": "HMNGAITLRVRPSDEGKRLDVFVVSQLTGYTRSFVAGLIGDRHFLVNGQPKKPGYRIKSSDTISGVIPAPA", "soluble fraction (log2)": -2.1}
{"sequence": "HMNGARALAGAIAEAIRKQVYRVNERLPAERELASHYDVSRGTLRSALALLEQEGLVTRKVGSGTFVMPP", "soluble fraction (log2)": -0.761}
{"sequence": "HMNGNLRAQVLELMGRADYEPLNKSELSRKLDLQGSDRSSLRILMDELERDHSVVRLKKGRFALKVV", "soluble fraction (log2)": -0.852}
{"sequence": "HMNGQFIELKNTTGTIIEARVLSFQNGKVKLQRNDGLIFVASISIFDSESIEVIKQKVAEISESKKS", "soluble fraction (log2)": -1.97}
{"sequence": "HMNGQITPSRAKEIALGHAGVSEGSANFKKIKLDNKNGRPAYEIEFIANNSRYEFEINASNGSIIKFNK", "soluble fraction (log2)": -0.321}
{"sequence": "HMNGYGALVRLGRSRGWVTVEEINDHLPESAVRTAENVQEITEALGRLSIKVFETRPDEDDLLIT", "soluble fraction (log2)": -0.458}
{"sequence": "HMNHGDATTETQAEIMAILSDMKPHPITELNTIKRPYEQIDTALTYLINEEKIYRMDGMIFIG", "soluble fraction (log2)": -1.38}
{"sequence": "HMNHYTEEYILKRMKDFFTTHAYITRRDIESLFGFRRSYATKWLKHFRESGVLKQSGPVNSAVYLL", "soluble fraction (log2)": -3.18}
{"sequence": "HMNIAESIRKYRKASGLTQEEMAKRLGVTTPAVSKWENGITNPDIALLAPIARLFHISVDTLLSYR", "soluble fraction (log2)": -1.83}
{"sequence": "HMNIDKLVGSTGTVVRSVTPDTAGLVRVNDEDWRASAEEILYERDAIVVEGIEGVTLIVSKLS", "soluble fraction (log2)": -0.813}
{"sequence": "HMNIETHIVPKLLAPIRLQEYGVGIFNNIPTKSALKKALKKQLITVDKTVATTATFIKGGETIELAYQ", "soluble fraction (log2)": -3.07}
{"sequence": "HMNIGEKIKTLRENNNISIEELAEKINDSIENILKYENNELEPTLDKKLALSIALGVTLSDLS", "soluble fraction (log2)": 0.971}
{"sequence": "HMNIGELINKKRTELGLTLEEVGNAVGVSKSTVKKWEDGFISNMRRDKISKLAKVLEMNPVSLITGE", "soluble fraction (log2)": 0.00376}
{"sequence": "HMNIGSKLRYLIEEANITQRQLADALHISPSALNGYINQGKEPDYATLVRIADYFHTSTDYLLGHSNIR", "soluble fraction (log2)": -0.806}
{"sequence": "HMNIIATHTVPAIEQKIRLQEYAISIFPQINSRSALKKAIAKKLVLLDGERASTADWIQPGQKIELLEDK", "soluble fraction (log2)": -1.37}
{"sequence": "HMNILAPFWERFGLSAFAAGNYDRAEGYFRKLEQKDPNSMSVLRNLGLILMAKGDAEGAEAYLLREEKL", "soluble fraction (log2)": -0.755}
{"sequence": "HMNILKKDKRLWDENNLNKPLLFELLENYDKEIFELLLTDKDIKAKFFVQAGESYVFKYDDFRFAIEQN", "soluble fraction (log2)": -3.32}
{"sequence": "HMNIMAQDWISSPMGPISFKSNQHGLVKIGWGEVPRENTEQPNLEFTRKWLVDYFEGKASPLPYF", "soluble fraction (log2)": -0.623}
{"sequence": "HMNIQGIFGRNLKQKRLEKGMTQEQLAEKAGVSTDTVKRYESGKYDGIRLDMAWYMANALDTPLQALLPP", "soluble fraction (log2)": 0.598}
{"sequence": "HMNISALKGKIGEVYLKIPAHNAGKGKVLISLKGTHHELYAITRSGEDISSGEFVKVIEIEDEILVVEK", "soluble fraction (log2)": -2.05}
{"sequence": "HMNITFAENIKQFRKAKSMSMEELGKRLGKAKSSISAWENGKRTPKINELKSISEALGVTISQLLGF", "soluble fraction (log2)": -1.71}
{"sequence": "HMNIYIEFGRRLAFIRQNSKLSQSQIAQKLNIAQSTYAGYEKGVRKIPLEIIVQLSKILNISPTILILG", "soluble fraction (log2)": -3.84}
{"sequence": "HMNKADFLRKLDRELSVLDQEERKEILSFYEERFYTGTNYENKTELDIINELENPEIIAKNVLEEYGV", "soluble fraction (log2)": -0.253}
{"sequence": "HMNKDEFLRRLEDALSGEVPASVIRENLNYYADYLSQELGKGRTMDEIIEEIGEPNIVARTIINSAEAA", "soluble fraction (log2)": 0.184}
{"sequence": "HMNKDWQDEVALQRYTMITPLLSEDLDNAKRIAMREKIAQDNLTTARSLYRYEKAYRENGFQGLRPTD", "soluble fraction (log2)": -0.252}
{"sequence": "HMNKEIEDYVATYSSMKAKEAAAIFDTMTSDLDLVAKILEAMSADDRAKILEQMNEENAARLTKMMD", "soluble fraction (log2)": 0.0551}
{"sequence": "HMNKEQIASNIAEARKRSGLNQSELARRLGIRPQSVQQWEKGTATPKLDRLTAIAQVLGVSLESLTG", "soluble fraction (log2)": -0.0463}
{"sequence": "HMNKFADLAGNIIYNENGVEVFNFGKYKGQPVAEVFKKDIGYYGWIQNADFPRYTKKVFTAIQLKSK", "soluble fraction (log2)": -1.28}
{"sequence": "HMNKIDVVEVDMSKPYEDMTVTELQNVILGKLASNGPVTDQMKKDVAENIYHDSLVNWAKSF", "soluble fraction (log2)": 0.883}
{"sequence": "HMNKIENLSQTILNILRKDHSQAFNYKQIAAKLQLDDPSSRNQIVKKLKDLQGKGTIQEIERGKYILTP", "soluble fraction (log2)": 0.394}
{"sequence": "HMNKITIDQAKEIALNHAKLTAEQVSFIRTESEFDDGIEKYNIEFYYNNQKYDYDINAVNGQIIQYDLEG", "soluble fraction (log2)": 0.159}
{"sequence": "HMNKITIEEAKSIALKHSNLDESQVSFIRSEYDFDNGIEKYEIEFYYNNNKYEYEINAKTGDIISYDYDI", "soluble fraction (log2)": -1.02}
{"sequence": "HMNKKAAYKDMAGYFAEMKSKDAADILSRLKDEDIIGIFNEMPRDMVAEMLQKMDRDKATTLTRKML", "soluble fraction (log2)": 0.444}
{"sequence": "HMNKKEQYQNIISNFLEKMSEEDRLIFNMHFFKSINISQIARSIDREGYYVKTKIENLLADLKSLMIGNNL", "soluble fraction (log2)": -2.95}
{"sequence": "HMNKKETRLNNFIHFLKIRNSITVKEMANHLNVSEMTVRRDIKELTADHTINFENGKIMFNPQSSL", "soluble fraction (log2)": -1.82}
{"sequence": "HMNKLIIDAAEDKIFFMIMNNDISYNISHENTKINFEKLIILINDFLSSKKLKINDITGLYV", "soluble fraction (log2)": 0.123}
{"sequence": "HMNKNIKIPNISNLSREDAESVLKESGISVSTEIKEVESDTIEKGKVVKTEPSIGSTVKQGRTITIYISSG", "soluble fraction (log2)": 0.161}
{"sequence": "HMNKRYKVQVTTDNLKIRKGAGTSYPVVGHITDKGTYTIVETSGKWGKLLSGAGWIYLSYTKK", "soluble fraction (log2)": -2.13}
{"sequence": "HMNKTEIISILEKIVLPTQIRNINIFGSEVIIDLNIDNPSLHAKKKLEKSIINSFDKNHKIIINFNVE", "soluble fraction (log2)": -0.238}
{"sequence": "HMNKTLTEQIYDELKSAIIELELKPGEFVTEEYLAEQLGVSRTPLKSAISKLIFEGLMAYEVGKGTYIS", "soluble fraction (log2)": -1.11}
{"sequence": "HMNKVQTFIIEKHIKEVFEHTNRTYYRSGQYYFQTRDEFSMALKRFLKDREPNKKNWIDSIINRA", "soluble fraction (log2)": -0.945}
{"sequence": "HMNKYQFESKIHIYRATKRMTQQELADLVGVSRQTIMQLERNRYNPSMMLAYGIAKVFDVTIEDLFDFSEV", "soluble fraction (log2)": -3.18}
{"sequence": "HMNKYYQQLLQADPTGFIDPFKDLGTYDSRLNTFKEPVSELLNPFSGRPYSKIWQKRIETMREIFISYIKS", "soluble fraction (log2)": -2.8}
{"sequence": "HMNLDVEQIKKEALNQLIEIGNENDGIVTIKDFKKIDDISSLDEDDIEDIRNLLIENNIEIFE", "soluble fraction (log2)": 0.0781}
{"sequence": "HMNLEQTIVLGKRLFNNALDTLGKKQRSIKNKQINKLLELLNFKNMNELYQSIGVGDKNPLLMAQMML", "soluble fraction (log2)": -0.775}
{"sequence": "HMNLESNQYVIDISDSQVINKDEFETILNQNKTKDIVIKSNNNVTFTFEKGSMIGAEGKDNYDFSSQVNY", "soluble fraction (log2)": -0.0852}
{"sequence": "HMNLFNEIEKQYQALQDRSSASLVDLRHLLLDIEELVNSPDYQALAPDQRSTLQAARKELMRRIQKQEN", "soluble fraction (log2)": 0.819}
{"sequence": "HMNLGDSLFHARRKQGLSQEAVAEQLGVSRQTVSKWEANETLPDIRQSKLMAKLYHTSLDELI", "soluble fraction (log2)": 0.0881}
{"sequence": "HMNLLDYTTLYVTSDGKSVSFGIAGKEIPVSYIAQEAPGTVVIDDTIRIPRKYDMEYILKRFNES", "soluble fraction (log2)": -1.2}
